Results as given in publication PMC11868986, “Identification of Schizophrenia‐Risk Regulatory Variant rs1399178 in the Non‐coding Region With Its Impact on NRF1 Binding”.

Target: T1, NRF1 DD-DBD (Homo sapiens, UniProt Q16656 49-288)
T1 sequence: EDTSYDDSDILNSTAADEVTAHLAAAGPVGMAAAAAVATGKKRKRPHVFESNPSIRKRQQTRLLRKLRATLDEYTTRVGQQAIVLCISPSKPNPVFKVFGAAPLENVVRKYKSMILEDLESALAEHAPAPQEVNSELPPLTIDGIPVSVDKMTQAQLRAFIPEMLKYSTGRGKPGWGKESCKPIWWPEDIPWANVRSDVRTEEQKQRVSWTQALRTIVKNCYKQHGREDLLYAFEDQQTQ
Experiment: ITC; two-site fit; DNA 500 uM into 50 uM protein; Kd only in Fig 4B; ITC: 50 mM Tris pH 8.0, 100 mM NaCl, 1 mM EDTA, 1 mM DTT, 25 C; EMSA: Thermo 20148 kit, SH-SY5Y nuclear extract
Conditions: protein: recombinant; cleaved with HRV 3C when needed; chain copies: 2

B1: RS(WT) / RS(G) (dsDNA)
DNA 1: GGCGCAGCCGCAGC
DNA 2: GCTGCGGCTGCGCC
binding result: binds
